Results: patent US20250320281A1

Columns and labels:
Assay in all cases: cell-based or functional assay
[1] = target: HIV-1 92RW020 Env (pseudovirus) (HIV-1)
[2] = target: HIV-1 92TH021 Env (pseudovirus) (HIV-1)
[3] = target: HIV-1 92UG005 Env (pseudovirus) (HIV-1)
[4] = target: HIV-1 92UG024 Env (pseudovirus) (HIV-1)
[5] = target: HIV-1 93IN905 Env (pseudovirus) (HIV-1)
[6] = target: HIV-1 94UG103 Env (pseudovirus) (HIV-1)
[7] = target: HIV-1 APV6 Env (pseudovirus) (HIV-1)
[8] = target: HIV-1 CMU02 Env (pseudovirus) (HIV-1)
[9] = target: HIV-1 JRCSF Env (pseudovirus) (HIV-1) (UniProt P20871)
[10] = target: HIV-1 MGRM-A-010 Env (pseudovirus) (HIV-1)
[11] = target: HIV-1 MGRM-C-026 Env (pseudovirus) (HIV-1)
[12] = target: HIV-1 MGRM-C-027 Env (pseudovirus) (HIV-1)
[13] = target: HIV-1 MGRM-C-028 Env (pseudovirus) (HIV-1)
[14] = target: HIV-1 MGRM-D-018 Env (pseudovirus) (HIV-1)
[15] = target: HIV-1 NL43 Env (pseudovirus) (HIV-1)
[16] = target: HIV-1 Env of isolate MGRM-C-001 (HIV-1)
[17] = target: HIV-1 Env of isolate MGRM-C-002 (HIV-1)
[18] = target: HIV-1 Env of isolate MGRM-C-004 (HIV-1)
[19] = target: HIV-1 Env of isolate MGRM-C-005 (HIV-1)
[20] = target: HIV-1 Env of isolate MGRM-C-006 (HIV-1)
[21] = target: HIV-1 Env of isolate MGRM-C-007 (HIV-1)
[22] = target: HIV-1 Env of isolate MGRM-C-008 (HIV-1)
[23] = target: HIV-1 Env of isolate MGRM-C-009 (HIV-1)
[24] = target: HIV-1 Env of isolate MGRM-C-010 (HIV-1)
[25] = target: HIV-1 Env of isolate MGRM-C-012 (HIV-1)
[26] = target: HIV-1 Env of isolate MGRM-C-013 (HIV-1)
[27] = target: HIV-1 Env of isolate MGRM-C-014 (HIV-1)
[28] = target: HIV-1 Env of isolate MGRM-C-015 (HIV-1)
[29] = target: HIV-1 Env of isolate MGRM-C-017 (HIV-1)
[30] = target: HIV-1 Env of isolate MGRM-C-019 (HIV-1)
[31] = target: HIV-1 Env of isolate MGRM-C-020 (HIV-1)
[32] = target: HIV-1 Env of isolate MGRM-C-022 (HIV-1)
[33] = target: HIV-1 Env of isolate MGRM-C-023 (HIV-1)
[34] = target: HIV-1 Env of isolate MGRM-C-024 (HIV-1)
[35] = target: HIV-1 Env of isolate MGRM-C-025 (HIV-1)

Chain of 4993_K13 (PGT-141) (antibody) (VH): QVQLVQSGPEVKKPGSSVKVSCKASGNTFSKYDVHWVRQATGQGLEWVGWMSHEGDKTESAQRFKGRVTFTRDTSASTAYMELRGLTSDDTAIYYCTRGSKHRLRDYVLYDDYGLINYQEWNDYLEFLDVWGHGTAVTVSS
Chain of 4993_K13 (PGT-141) (antibody) (VL): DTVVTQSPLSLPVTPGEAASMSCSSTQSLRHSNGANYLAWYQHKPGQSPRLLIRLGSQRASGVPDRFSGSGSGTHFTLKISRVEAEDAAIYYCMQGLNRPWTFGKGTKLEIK
Chain of 4995_E20 (PGT-142) (antibody) (VH): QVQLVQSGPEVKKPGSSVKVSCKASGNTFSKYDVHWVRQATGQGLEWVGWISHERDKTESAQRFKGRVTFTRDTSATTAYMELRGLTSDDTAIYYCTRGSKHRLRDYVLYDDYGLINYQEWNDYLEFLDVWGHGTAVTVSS
Chain of 1443_C16 (PG16) (TCN-116) (antibody) (VH): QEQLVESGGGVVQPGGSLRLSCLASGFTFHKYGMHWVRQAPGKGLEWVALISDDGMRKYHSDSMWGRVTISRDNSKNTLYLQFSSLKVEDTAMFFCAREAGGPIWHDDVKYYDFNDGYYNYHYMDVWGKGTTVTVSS
Chain of 1443_C16 (PG16) (TCN-116) (antibody) (VL): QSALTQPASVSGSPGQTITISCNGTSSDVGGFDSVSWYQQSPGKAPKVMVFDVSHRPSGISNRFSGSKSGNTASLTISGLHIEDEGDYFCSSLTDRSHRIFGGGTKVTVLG
Chain of 4980_N08 (PGT-143) (antibody) (VH): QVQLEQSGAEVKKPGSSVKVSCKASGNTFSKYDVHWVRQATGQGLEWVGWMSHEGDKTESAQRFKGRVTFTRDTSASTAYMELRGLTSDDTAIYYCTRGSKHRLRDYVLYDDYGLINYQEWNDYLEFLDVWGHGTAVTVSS
Chain of 4980_N08 (PGT-143) (antibody) (VL): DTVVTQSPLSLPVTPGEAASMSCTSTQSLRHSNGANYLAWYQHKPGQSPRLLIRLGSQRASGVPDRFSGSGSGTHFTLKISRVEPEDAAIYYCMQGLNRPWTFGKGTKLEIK
Chain of 4970_K22 (PGT-144) (antibody) (VH): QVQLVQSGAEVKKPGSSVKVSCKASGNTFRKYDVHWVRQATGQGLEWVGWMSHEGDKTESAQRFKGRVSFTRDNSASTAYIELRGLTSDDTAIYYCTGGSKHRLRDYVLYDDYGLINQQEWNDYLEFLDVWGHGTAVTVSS
Chain of 4970_K22 (PGT-144) (antibody) (VL): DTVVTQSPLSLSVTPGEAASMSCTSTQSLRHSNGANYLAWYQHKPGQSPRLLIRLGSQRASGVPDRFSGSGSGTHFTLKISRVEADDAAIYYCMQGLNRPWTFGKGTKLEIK

| Substance | IC50 [16] | IC50 [17] | IC50 [18] | IC50 [19] | IC50 [20] | IC50 [21] | IC50 [22] | IC50 [23] | IC50 [24] | IC50 [25] | IC50 [26] | IC50 [27] | IC50 [28] | IC50 [29] | IC50 [30] | IC50 [31] | IC50 [32] | IC50 [33] | IC50 [34] | IC50 [35] | further results |
| --- | --- | --- | --- | --- | --- | --- | --- | --- | --- | --- | --- | --- | --- | --- | --- | --- | --- | --- | --- | --- | --- |
| 4980_N08 (PGT-143) (antibody) |  |  |  |  |  |  |  |  |  |  |  |  |  |  |  |  |  |  |  |  | neutralization IC50 (pseudovirus) [1]: > 10 µg/mL; IC50 (neutralizing activity, pseudovirus) [2]: 0.0028 µg/mL; IC50 (neutralizing activity, pseudovirus) [3]: > 10 µg/mL; IC50 (neutralizing activity, pseudovirus) [4]: > 10 µg/mL; IC50 (neutralizing activity, pseudovirus) [5]: 0.0021 µg/mL; IC50 (neutralizing activity, pseudovirus) [6]: > 10 µg/mL; IC50 (neutralizing activity, pseudovirus) [7]: 4.43 µg/mL; IC50 (neutralizing activity, pseudovirus) [8]: > 10 µg/mL; IC50 (neutralizing activity, pseudovirus) [9]: 0.0064 µg/mL; IC50 (neutralizing activity, pseudovirus) [10]: 0.0657 µg/mL; IC50 (neutralizing activity, pseudovirus) [11]: > 10 µg/mL; IC50 (neutralizing activity, pseudovirus) [12]: 0.505 µg/mL; IC50 (neutralizing activity, pseudovirus) [13]: 1.82 µg/mL; IC50 (neutralizing activity, pseudovirus) [14]: > 10 µg/mL; IC50 (neutralizing activity, pseudovirus) [15]: 0.585 µg/mL |
| 2G12 (antibody) | 2.93 µg/mL | > 50 µg/mL | > 50 µg/mL | > 50 µg/mL | > 50 µg/mL | > 50 µg/mL | > 50 µg/mL | > 50 µg/mL | > 50 µg/mL | > 50 µg/mL | > 50 µg/mL | > 50 µg/mL | 1.75 µg/mL | > 50 µg/mL | > 50 µg/mL | 18.6 µg/mL | > 50 µg/mL | > 50 µg/mL | > 50 µg/mL | > 50 µg/mL |  |
| 4993_K13 (PGT-141) (antibody) |  |  |  |  |  |  |  |  |  |  |  |  |  |  |  |  |  |  |  |  | neutralization IC50 (pseudovirus) [1]: > 10 µg/mL; IC50 (neutralizing activity, pseudovirus) [2]: 0.0019 µg/mL; IC50 (neutralizing activity, pseudovirus) [3]: > 10 µg/mL; IC50 (neutralizing activity, pseudovirus) [4]: > 10 µg/mL; IC50 (neutralizing activity, pseudovirus) [5]: 0.0016 µg/mL; IC50 (neutralizing activity, pseudovirus) [6]: > 10 µg/mL; IC50 (neutralizing activity, pseudovirus) [7]: 5.08 µg/mL; IC50 (neutralizing activity, pseudovirus) [8]: > 10 µg/mL; IC50 (neutralizing activity, pseudovirus) [9]: 0.0047 µg/mL; IC50 (neutralizing activity, pseudovirus) [10]: 0.0563 µg/mL; IC50 (neutralizing activity, pseudovirus) [11]: > 10 µg/mL; IC50 (neutralizing activity, pseudovirus) [12]: 0.822 µg/mL; IC50 (neutralizing activity, pseudovirus) [13]: 2.35 µg/mL; IC50 (neutralizing activity, pseudovirus) [14]: > 10 µg/mL; IC50 (neutralizing activity, pseudovirus) [15]: 0.856 µg/mL |
| 1496_C09 (PG9) (TCN-109) (antibody) |  |  | 1.18 µg/mL | 2.98 µg/mL | 0.23 µg/mL | 0.09 µg/mL |  |  | 12.4 µg/mL | 0.24 µg/mL |  | 0.64 µg/mL | 0.5 µg/mL | 1.52 µg/mL | 0.01 µg/mL |  | 0.19 µg/mL | 0.51 µg/mL | 0.22 µg/mL | 0.17 µg/mL | neutralization IC50 (pseudovirus) [1]: 0.161 µg/mL; neutralization IC50 (pseudovirus) [2]: 0.103 µg/mL; neutralization IC50 (pseudovirus) [4]: 1.91 µg/mL; neutralization IC50 (pseudovirus) [5]: 0.048 µg/mL; neutralization IC50 (pseudovirus) [6]: 0.31 µg/mL; neutralization IC50 (pseudovirus) [7]: 0.214 µg/mL; neutralization IC50 (pseudovirus) [9]: 0.0048 µg/mL; neutralization IC50 (pseudovirus) [10]: 0.0375 µg/mL; neutralization IC50 (pseudovirus) [11]: 0.113 µg/mL; neutralization IC50 (pseudovirus) [12]: 2.45 µg/mL; neutralization IC50 (pseudovirus) [13]: 0.121 µg/mL; neutralization IC50 (pseudovirus) [14]: 2.04 µg/mL; neutralization IC50 (pseudovirus) [15]: 0.687 µg/mL |
| 4970_K22 (PGT-144) (antibody) |  |  |  |  |  |  |  |  |  |  |  |  |  |  |  |  |  |  |  |  | neutralization IC50 (pseudovirus) [1]: > 10 µg/mL; IC50 (neutralizing activity, pseudovirus) [2]: 0.0934 µg/mL; IC50 (neutralizing activity, pseudovirus) [3]: > 10 µg/mL; IC50 (neutralizing activity, pseudovirus) [4]: > 10 µg/mL; IC50 (neutralizing activity, pseudovirus) [5]: 0.158 µg/mL; IC50 (neutralizing activity, pseudovirus) [6]: > 10 µg/mL; IC50 (neutralizing activity, pseudovirus) [7]: > 10 µg/mL; IC50 (neutralizing activity, pseudovirus) [8]: > 10 µg/mL; IC50 (neutralizing activity, pseudovirus) [9]: 0.128 µg/mL; IC50 (neutralizing activity, pseudovirus) [10]: 4.02 µg/mL; IC50 (neutralizing activity, pseudovirus) [11]: > 10 µg/mL; IC50 (neutralizing activity, pseudovirus) [12]: > 10 µg/mL; IC50 (neutralizing activity, pseudovirus) [13]: > 10 µg/mL; IC50 (neutralizing activity, pseudovirus) [14]: > 10 µg/mL; IC50 (neutralizing activity, pseudovirus) [15]: > 10 µg/mL |
| VRC01 (antibody) |  |  |  |  |  |  |  |  |  |  |  |  |  |  |  |  |  |  |  |  | IC50, pseudovirus neutralization [18]: 1.01 µg/mL; IC50 (µg/mL), pseudovirus neutralization [27]: > 50 µg/mL; IC50 (µg/mL), pseudovirus neutralization [28]: 1.57 µg/mL; IC50 (µg/mL), pseudovirus neutralization [29]: 0.366 µg/mL; IC50 (µg/mL), pseudovirus neutralization [30]: 1.13 µg/mL; IC50 (µg/mL), pseudovirus neutralization [31]: 0.396 µg/mL; IC50 (µg/mL), pseudovirus neutralization [32]: 13 µg/mL; IC50 (µg/mL), pseudovirus neutralization [33]: 0.077 µg/mL; IC50 (µg/mL), pseudovirus neutralization [34]: 3.4 µg/mL; IC50 (µg/mL), pseudovirus neutralization [35]: 2.36 µg/mL |
| 1443_C16 (PG16) (TCN-116) (antibody) | 16.8 µg/mL | 28.3 µg/mL | 5.09 µg/mL | 2.55 µg/mL | 2.62 µg/mL | 0.05 µg/mL | > 50 µg/mL | > 50 µg/mL | > 50 µg/mL | 0.48 µg/mL | > 50 µg/mL | > 50 µg/mL | 0.26 µg/mL | 1.8 µg/mL | 0.002 µg/mL | > 50 µg/mL | 0.25 µg/mL | 0.09 µg/mL | 0.04 µg/mL | 0.04 µg/mL |  |
| 2F5 (antibody) | > 50 µg/mL | 44.7 µg/mL | > 50 µg/mL | > 50 µg/mL | > 50 µg/mL | > 50 µg/mL | > 50 µg/mL | > 50 µg/mL | > 50 µg/mL | > 50 µg/mL | 18.4 µg/mL | > 50 µg/mL | > 50 µg/mL | > 50 µg/mL | > 50 µg/mL | > 50 µg/mL | > 50 µg/mL | > 50 µg/mL | > 50 µg/mL | > 50 µg/mL |  |
| 1495_C14 (PGC14) (antibody) | > 50 µg/mL | > 50 µg/mL | > 50 µg/mL | > 50 µg/mL | > 50 µg/mL | > 50 µg/mL | > 50 µg/mL | > 50 µg/mL | > 50 µg/mL | > 50 µg/mL | > 50 µg/mL | > 50 µg/mL | > 50 µg/mL | > 50 µg/mL | 12 µg/mL | > 50 µg/mL | > 50 µg/mL | > 50 µg/mL | > 50 µg/mL | > 50 µg/mL |  |
| 4995_E20 (PGT-142) (antibody) |  |  |  |  |  |  |  |  |  |  |  |  |  |  |  |  |  |  |  |  | neutralization IC50 (pseudovirus) [1]: > 10 µg/mL; IC50 (neutralizing activity, pseudovirus) [2]: 0.0022 µg/mL; IC50 (neutralizing activity, pseudovirus) [3]: > 10 µg/mL; IC50 (neutralizing activity, pseudovirus) [4]: > 10 µg/mL; IC50 (neutralizing activity, pseudovirus) [5]: 0.0017 µg/mL; IC50 (neutralizing activity, pseudovirus) [6]: > 10 µg/mL; IC50 (neutralizing activity, pseudovirus) [7]: 5.42 µg/mL; IC50 (neutralizing activity, pseudovirus) [8]: > 10 µg/mL; IC50 (neutralizing activity, pseudovirus) [9]: 0.0085 µg/mL; IC50 (neutralizing activity, pseudovirus) [10]: 0.0578 µg/mL; IC50 (neutralizing activity, pseudovirus) [11]: > 10 µg/mL; IC50 (neutralizing activity, pseudovirus) [12]: 0.272 µg/mL; IC50 (neutralizing activity, pseudovirus) [13]: 1.23 µg/mL; IC50 (neutralizing activity, pseudovirus) [14]: > 10 µg/mL; IC50 (neutralizing activity, pseudovirus) [15]: 0.712 µg/mL |
| 4E10 (antibody) | 5.66 µg/mL | 18.2 µg/mL | 24.2 µg/mL | 16.4 µg/mL | 4.94 µg/mL | 5.84 µg/mL | 2.97 µg/mL | 0.56 µg/mL | 11 µg/mL | 0.44 µg/mL | 2.1 µg/mL | 2.48 µg/mL | 2.52 µg/mL | 1.47 µg/mL | 3.49 µg/mL | 2.8 µg/mL | 5.71 µg/mL | 1.95 µg/mL | 22.6 µg/mL | 5.58 µg/mL |  |
| b12 (antibody) | > 50 µg/mL | > 50 µg/mL | 5.46 µg/mL | 2.66 µg/mL | > 50 µg/mL | > 50 µg/mL | 1.51 µg/mL | > 50 µg/mL | > 50 µg/mL | > 50 µg/mL | > 50 µg/mL | > 50 µg/mL | 13.3 µg/mL | > 50 µg/mL | > 50 µg/mL | > 50 µg/mL | > 50 µg/mL | 13.9 µg/mL | > 50 µg/mL | > 50 µg/mL |  |
